Read-outs that look alike come from different tables or passages of the source.
What was measured:
Test in all cases: FACS
[1] = target: T1, human CCR4 (human)
T1 chain: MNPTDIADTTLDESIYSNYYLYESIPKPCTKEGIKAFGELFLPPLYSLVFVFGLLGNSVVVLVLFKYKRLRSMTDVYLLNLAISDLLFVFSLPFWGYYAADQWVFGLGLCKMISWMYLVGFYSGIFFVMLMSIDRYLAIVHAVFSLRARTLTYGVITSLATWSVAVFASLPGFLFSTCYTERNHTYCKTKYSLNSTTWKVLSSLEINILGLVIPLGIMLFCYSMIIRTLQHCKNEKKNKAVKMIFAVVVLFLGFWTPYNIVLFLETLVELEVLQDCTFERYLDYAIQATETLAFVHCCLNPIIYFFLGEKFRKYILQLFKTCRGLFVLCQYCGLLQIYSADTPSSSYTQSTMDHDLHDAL

[2] = target: human CCR8 (human)
Sequence of human CCR8 (human) (chain, as listed by the source): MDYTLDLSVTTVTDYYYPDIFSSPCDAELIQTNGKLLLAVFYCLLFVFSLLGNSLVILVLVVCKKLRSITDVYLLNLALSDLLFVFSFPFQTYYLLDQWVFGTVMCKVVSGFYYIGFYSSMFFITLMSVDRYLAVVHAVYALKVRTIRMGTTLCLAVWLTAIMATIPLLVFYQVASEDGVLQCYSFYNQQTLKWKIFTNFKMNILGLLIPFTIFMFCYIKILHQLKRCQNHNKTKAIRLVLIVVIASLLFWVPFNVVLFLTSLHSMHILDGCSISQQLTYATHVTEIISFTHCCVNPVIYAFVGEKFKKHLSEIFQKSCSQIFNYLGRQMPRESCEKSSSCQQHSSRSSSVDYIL

[3] = target: human CCR5 (human)
Sequence of human CCR5 (human) (O14692 whole entry): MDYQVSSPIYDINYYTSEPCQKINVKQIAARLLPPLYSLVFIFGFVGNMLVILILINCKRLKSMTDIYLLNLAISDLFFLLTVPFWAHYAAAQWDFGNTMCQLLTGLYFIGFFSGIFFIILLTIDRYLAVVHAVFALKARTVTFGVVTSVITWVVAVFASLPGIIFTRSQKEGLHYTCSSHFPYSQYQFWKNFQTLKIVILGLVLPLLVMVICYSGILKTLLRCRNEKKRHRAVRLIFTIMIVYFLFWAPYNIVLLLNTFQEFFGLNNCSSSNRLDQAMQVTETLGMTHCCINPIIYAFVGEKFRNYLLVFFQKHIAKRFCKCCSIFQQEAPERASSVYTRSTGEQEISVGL

[4] = target: T2, human CX3CR1 (human)
T2 chain: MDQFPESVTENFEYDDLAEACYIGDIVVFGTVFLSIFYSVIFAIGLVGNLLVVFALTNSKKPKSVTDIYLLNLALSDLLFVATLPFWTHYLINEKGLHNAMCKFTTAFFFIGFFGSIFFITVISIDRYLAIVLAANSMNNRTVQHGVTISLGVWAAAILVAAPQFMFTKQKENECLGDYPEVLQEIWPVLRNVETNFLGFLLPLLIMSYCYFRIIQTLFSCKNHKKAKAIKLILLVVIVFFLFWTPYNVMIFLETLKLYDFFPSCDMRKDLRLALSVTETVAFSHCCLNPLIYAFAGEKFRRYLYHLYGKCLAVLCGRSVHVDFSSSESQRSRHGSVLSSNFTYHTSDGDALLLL

[5] = target: T3, human CCR2 (human)
T3 chain: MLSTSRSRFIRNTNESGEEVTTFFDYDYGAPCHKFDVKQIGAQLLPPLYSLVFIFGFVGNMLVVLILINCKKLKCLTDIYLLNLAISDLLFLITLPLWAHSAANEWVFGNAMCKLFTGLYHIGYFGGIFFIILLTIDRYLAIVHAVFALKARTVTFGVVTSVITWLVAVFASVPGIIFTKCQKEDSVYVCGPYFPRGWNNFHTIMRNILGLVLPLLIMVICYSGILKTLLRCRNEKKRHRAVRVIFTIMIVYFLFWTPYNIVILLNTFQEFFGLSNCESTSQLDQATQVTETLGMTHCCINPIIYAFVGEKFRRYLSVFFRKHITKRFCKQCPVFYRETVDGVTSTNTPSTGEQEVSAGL

[6] = target: T4, mouse CCR8 (mouse)
T4 chain: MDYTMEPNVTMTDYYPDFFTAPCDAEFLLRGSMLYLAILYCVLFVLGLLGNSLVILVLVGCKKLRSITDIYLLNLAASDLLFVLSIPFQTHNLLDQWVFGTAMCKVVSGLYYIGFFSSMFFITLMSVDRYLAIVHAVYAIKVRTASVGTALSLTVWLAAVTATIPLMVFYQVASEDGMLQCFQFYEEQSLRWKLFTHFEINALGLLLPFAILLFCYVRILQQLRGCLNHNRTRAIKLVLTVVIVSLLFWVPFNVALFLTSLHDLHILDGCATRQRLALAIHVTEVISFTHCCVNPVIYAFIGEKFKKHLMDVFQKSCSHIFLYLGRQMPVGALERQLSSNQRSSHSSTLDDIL

[7] = target: T4, mouse CCR8
[8] = target: human CCR8 (human); remark: listed apart in the source
[9] = target: T5, cynomolgus CCR8 (cynomolgus)
T5 chain: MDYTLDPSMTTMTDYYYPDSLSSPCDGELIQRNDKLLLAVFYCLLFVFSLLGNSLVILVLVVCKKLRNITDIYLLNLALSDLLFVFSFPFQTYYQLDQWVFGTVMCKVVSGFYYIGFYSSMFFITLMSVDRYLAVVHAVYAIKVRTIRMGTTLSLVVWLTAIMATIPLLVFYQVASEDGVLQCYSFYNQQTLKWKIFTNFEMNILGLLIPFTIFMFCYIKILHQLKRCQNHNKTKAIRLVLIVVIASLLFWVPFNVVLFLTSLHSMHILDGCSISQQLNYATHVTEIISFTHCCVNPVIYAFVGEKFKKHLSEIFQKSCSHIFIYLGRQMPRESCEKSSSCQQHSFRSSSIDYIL

[10] = target: human CCR8 (human); remark: listed apart in the source
[11] = target: human CCR8 (human); remark: listed apart in the source
[12] = target: T4, mouse CCR8
[13] = target: T5, cynomolgus CCR8
[14] = target: human CCR8 (human); remark: listed apart in the source
[15] = target: T4, mouse CCR8

B1: Plozalizuzumab analog (antibody, V domains shown)
VH: EVQLVESGGGLVKPGGSLRLSCAASGFTFSAYAMNWVRQAPGKGLEWVGRIRTKNNNYATYYADSVKDRFTISRDDSKNTLYLQMNSLKTEDTAVYYCTTFYGNGVWGQGTLVTVSS
VL: DVVMTQSPLSLPVTLGQPASISCKSSQSLLDSDGKTFLNWFQQRPGQSPRRLIYLVSKLDSGVPDRFSGSGSGTDFTLKISRVEAEDVGVYYCWQGTHFPYTFGQGTRLEIK
B1: no binding [1]; no binding [2]; no binding [3]. B1: no binding [4].

B2: Leronlimab analog (antibody, V domains shown)
VH: EVQLVESGGGLVKPGGSLRLSCAASGYTFSNYWIGWVRQAPGKGLEWIGDIYPGGNYIRNNEKFKDKTTLSADTSKNTAYLQMNSLKTEDTAVYYCGSSFGSNYVFAWFTYWGQGTLVTVSS
VL: DIVMTQSPLSLPVTPGEPASISCRSSQRLLSSYGHTYLHWYLQKPGQSPQLLIYEVSNRFSGVPDRFSGSGSGTDFTLKISRVEAEDVGVYYCSQSTHVPLTFGQGTKVEIK
B2: no binding [5]; no binding [1]; no binding [2]. B2: no binding [4].

B3: 10A11 analog (antibody, V domains shown)
VH: EVQLVESGGALVKPGGSLRLSCAASGFTFSTYALYWVRQAPGKGLEWVGRIRSKSNNYATYYADSVKDRFTISRDDSKNTLYLQMNSLKTEDTAVYYCTRARFYYSDYGYAMDYWGQGTLVTVSS
VL: DIVMTQSPDSLAVSLGERATINCRSSKSLLHSNRNTYLYWYQQKPGQPPKLLIYRMSQLASGVPDRFSGSGSGTDFTLTISSLQAEDVAVYYCMQHLEYPLTFGQGTKLEIKR
In the case of B3, the binding result [6] is reported as “no binding”, the EC50 [7] is reported as > 10 µg/mL and the EC50 [8] is reported as 0.058 µg/mL.

B4: 7B16 analog (antibody, V domains shown)
VH: EVQLVESGGGLVQPGGSLKLSCAASGFTFNTYAMNWVRQASGKGLEWVGRIRSKSNNYATYYADSVKDRFTISRDDSKNTAYLQMNSLKTEDTAVYYCVRGLLRYRFFDVWGQGTTVTVSS
VL: DIVMTQSPLSLPVTPGEPASISCRSSKSLLHSNGNTYLYWFLQKPGQSPQLLIYRMSNLASGVPDRFSGSGSGTDFTLKISRVEAEDVGVYYCMQHLEYPFTFGGGTKVEIK
With B4 the binding result [6] was “no binding”, the binding result [9] was “no binding” and the EC50 [7] was > 10 µg/mL. The EC50 [8] was 0.039 µg/mL.

B5: Mogamulizumab analog-SI (antibody, V domains shown)
VH: EVQLVESGGDLVQPGRSLRLSCAASGFIFSNYGMSWVRQAPGKGLEWVATISSASTYSYYPDSVKGRFTISRDNAKNSLYLQMNSLRVEDTALYYCGRHSDGNFAFGYWGQGTLVTVSS
VL: DVLMTQSPLSLPVTPGEPASISCRSSRNIVHINGDTYLEWYLQKPGQSPQLLIYKVSNRFSGVPDRFSGSGSGTDFTLKISRVEAEDVGVYYCFQGSLLPWTFGQGTKVEIK
B5: no binding [5]; no binding [2]; no binding [3]. B5: no binding [4].

B6: 11F8 (antibody, V domains shown)
VH: QVQLVESGGGVVQPGRSLRLSCAASGFTFSTYVMHWVRQAPGKGLEWVAVISYDGNNKYYADSVKGRFIISRDNSKNTLFLQMNSLRGEDTAVYYCARGRSYVNYYGLDVWGQGTTVTVSS
VL: DIVMTQTPLSLSVTPGQPASISCKSSQSLLYSDGKTYLYWYLQKPGQPPHLLIYEVSNRFSGVPKRFSGSGSGTDFTLKISRVEAEDVGVYYCMQSVKIPLTFGGGTKVEIK
B6 was tested, and the binding result [5] was “no binding”, the binding result [1] was “no binding” and the EC50 [10] was 0.104 µg/mL. For the same binder, the EC50 [7] was 0.127 µg/mL, the binding result [3] was “no binding” and the EC50 [11] was 0.0814 µg/mL. The EC50 [12] was 0.127 µg/mL, the binding result [4] was “no binding” and the EC50 [13] was 0.71 µg/mL. The EC50 [8] was 0.104 µg/mL.

B7: 11F5 (antibody, V domains shown)
VH: EVQLVESGGGVVQPGRSLRLSCAASGFTFSSYVVHWVRQAPGKGLEWVAVISYDGDNKFYADSVKGRFTISRDNSKNTLYLQMNSLRTEDTAVYYCARGRNYYYYYGLDVWGQGTTVTVSS
VL: DIVMTQTPLSLSVTPGQPASISCKSSQSLLYSDGKTYLYWYLQKAGQPPQLLIYEVSNRFSGVPDRFSGSGSGTDFTLKISRVEAEDVGVFYCMQSLKVPPTFGQGTKVDIK
With B7 the EC50 [14] was 0.207 µg/mL, the binding result [5] was “no binding” and the binding result [1] was “no binding”. For the same binder, the EC50 [10] was 0.287 µg/mL, the EC50 [7] was 0.4 µg/mL and the binding result [3] was “no binding”. The EC50 [11] was 0.285 µg/mL, the EC50 [12] was 0.4 µg/mL and the EC50 [15] was 0.168 µg/mL. The binding result [4] was “no binding”, the EC50 [13] was > 2 µg/mL and the EC50 [8] was 0.287 µg/mL.

B8: 11B12 (antibody, V domains shown)
VH: QVQLVESGGGVVQPGRSLRLSCAASGFSFSSYVMHWVRQAPGKGLEWVAVISYDGSDKYYADSVKGRFTISRDNSKNTLFLQMNSLRPEDTAVYYCARGRGYRYGQSYYYGMDVWGQGTTVTVSS
VL: DIVMTQTPLSLSVTPGQPASISCKSSQSLLYSDGKTYLYWYLQKPGQPPQILIFEVSNRFSGVPDRFSGSGSGTDFTLKISRVEAEDVGVYYCMQSIKLPLTFGGGTKVEIK
For B8, the binding result [5] was “no binding”, the binding result [1] was “no binding” and the EC50 [10] was 0.194 µg/mL. The EC50 [7] was 0.177 µg/mL, the binding result [3] was “no binding” and the EC50 [11] was 0.21 µg/mL. For the same binder, the EC50 [12] was 0.177 µg/mL, the binding result [4] was “no binding” and the EC50 [13] was 0.103 µg/mL. For the same binder, the EC50 [8] was 0.194 µg/mL.
